Measured values as given in paper PMC11200690 (Antibodies, 2024).

Biological target: T1, recombinant human HER2 ECD protein (Homo sapiens, UniProt P04626)
T1 construct: human epidermal growth factor receptor-2 (HER2, Erbb2), extracellular domain; also called HER2 antigen; Erbb2; source: bought: SinoBiological (10004-H08H)
Test: BLI; scFv formats against HER2 ECD; set-up not told (Figure S2)
Conditions: both partners purified

B1: Ab8 scFv (scFv, V domains shown)
VH: QVQLGESGGGVVRPGGSLRLSCAASGFTFSSYAMSWVRQAPGKGLEWVSAISGSGGSTYYADSVKGRFTISRENAKNSLYLQMNSLRAEDTAVYYCARRGGVWAFDIWGQGTMVTVSS
VL: DVVMTQSPLSLPVTPGEPASISCRSSQSLLHSNGINYLDWYLQKPGQSPQLLIYLGSSRASGVPDRFSGSGSGTDFTLKISRVEAEDVGVYFCMQALQTPLTFGQGTKLEIK
notes: as the VH of m1; as the VL of m1; also called scFv Ab8; ScFv of Ab8; source: HB2151 cells (pComb3x plasmid), purified (Ni-NTA); not shown: Flag, C-terminal, kept
Kd: 9 nM
